According to PMC11315126:

Target: GST-TrbBWT (not stated | E. coli F plasmid) (UniProt P18035)
Experiment: SEC-MALS; SEC-MALS-SAXS; Superdex 200 10/300 Increase, 0.6 mL/min, 5.5 mg/mL loaded, 20 mM HEPES pH 7.0, 100 mM NaCl, 5% glycerol, 0.05% NP40, 20 °C

GST-TrbBWT (from UniProt P18035 23-181) showed a stoichiometry N of 2.
